Test results published in the DeepSol protein solubility set.

Test: soluble on expression in E. coli; label from the status in PepcDB or PDB records

| Sequence | soluble on expression in E. coli |
| --- | --- |
| MGDHYGFSLTTFSPSGKLMQIEYALNAVKNGQPSVGLRAKDGVVLATENVGSVLTDDQPKVEQISKHIGCVYSGMGPDFRILVKKARKIAMEYEMMYGEEMPTIQLVTDIAAVMQEYTQSGGVRPFGASLLIAGWDKNPGRPLLFQCDPSGAYFAWKATALGKNDVNAKTFLEKRFSEALELDDGIHTALLTLRESFDVGMNENNVEVAVCNSTGFHRLTKQQVHDHLGTL | not soluble |
| MSLSQSSRLSALPIFQASLSASQSPRYIFSSQNGTRIVFIQDNIIRWYNVLTDSLYHSLNFSRHLVLDDTFHVISSTSGDLLCLFNDNEIFVMEVPWGYSNVEDVSIQDAFQIFHYSIDEEEVGPKSSIKKVLFHPKSYRDSCIVVLKEDDTITMFDILNSQEKPIVLNKPNNSFGLDARVNDITDLEEGHHHHHH | soluble |
| MWGWKAVGIKIDPSVSLEQAREIIKEAGFQEYVVNPEYIIFKQTGTQLTIKGEELPIEVVIGSAESGIFLQARYDTFVLFDSGDLAKLADELVFKLSV | not soluble |
| AHHHHHHGSEIKYRPEELTKLPRSVEYREGKVYMINQRLLPREFKVEEFTTVEAVAEAIKNMTVRGAPAIGAAAAFGLALYAETSKAKTKDEFFDGFYRAYETLKNTRPTAVNLFWALNRIKKLVEEHREDSLDEIKRLIVEEAQKIADEDVEANLRMGHYGAEVLPEGNILTHCNAGSLATVHLGTVGAVVRVMHKEGTLKLLWLDETRPVLQGARLSAWEYSYDGLNVKLIADNAAAFVMQQGKVDAIIVGADRIVANGDFANKIGTYMLAVLAKEHGIPFFTVAPLSSIDMSLSSGKEIPIEERSPEEVLTCGGCRIAPDVPVYNPAFDVTPHKYLTGIITDRGVVWPPFKRNLKKLFETL | soluble |
| MSLNGATQGLLGWSSRGEIAAEIADAKQSQSVYVDKIANSSLAEIQADPTLMQFALSGGAAAFKVNCIQCHGSGAEGGQGYPNLNDDDWMWGGSVDDIYTTVKHGIRFADDADTRASEMPAFGDILKSDEIRAVAAYVVSLTGTPSNPALVEPGKQLFADNCASCHGEDAKGNREFGAPNLADAIWLKAHGEEGIVAQIRSPKHGVMPAWGERLGDTTVKQLAIFVHSLGGGEGHHHHHH | not soluble |
| MSMDISDFYQTFFDEADELLADMEQHLLDLVPESPDAEQLNAIFRAAHSIKGGAGTFGFTILQETTHLMENLLDEARRGEMQLNTDIINLFLETKDIMQEQLDAYKNSEEPDAASFEYICNALRQLALEAKGETTPAVRSHHHHHH | soluble |
| MSGVSTAAYFARRAAQKERVRILYRRALKDTLNWAVHRHIFYRDEDVDRIDKLIAHGEAEYNKWRHPDPYIVPWAPGGSKFCRNPTPPAGIEIVYNYGLEDNP | not soluble |
| MKARSKKSVGIVALALLMGKVYAAPTPAACPDVSVIKQHQEGQGFVYTAPAPNNQQWRGENPRGDAKDINSIAFKSANIRNRSAITGNAFVACDYEGNSSAGIRMSLETLKVATPVGKAWNGLSCSESNPSACTFEY | not soluble |
| MLARVCERTPISTPAWTDTLTRLAPDASSVLARGPWTWKYALPPAVVGVAALAASSPWGVVGVALAAFVVWFHRDPDRSPNGAGVVVPADGTVSVIRTRDDGRVRVGVFMNVHNVHVNRVPVAGRVESVVHEPGGHRPAFSKESAHNERVRIETAEWTVVLIAGAFARRIHPYVEAGEDLARGDRLGHISFGSRADVVLPPAYDRGDVVVESGQTVRAGETVLARLEHHHHHH | soluble |
| MSLPDHSLFRLRILPWCIALAMSGSYSSVWAEDDIQFDSRFLELKGDTKIDLKRFSSQGYVEPGKYNLQVQLNKQPLAEEYDIYWYAGEDDVSKSYACLTPELVAQFGLKEDVAKNLQWSHDGKCLKPGQLEGVEIKADLSQSALVISLPQAYLEYTWPDWDPPSRWDDGISGIIADYSITAQTRHEENGGDDSNEISGNGTVGVNLGPWRMRADWQTNYQHTRSNDDDDEFGGDDTQKKWEWSRYYAWRALPSLKAKLALGEDYLNSDIFDGFNYVGGSVSTDDQMLPPNLRGYAPDISGVAHTTAKVTVSQMGRVIYETQVPAGPFRIQDLGDSVSGTLHIRIEEQNGQVQEYDISTASMPYLTRPGQVRYKIMMGRPQEWGHHVEGGFFSGAEASWGIANGWSLYGGALGDENYQSAALGVGRDLSTFGAVAFDVTHSHTKLDKDTAYGKGSLDGNSFRVSYSKDFDQLNSRVTFAGYRFSEENFMTMSEYLDASDSEMVRTGNDKEMYTATYNQNFRDAGVSVYLNYTRHTYWDREEQTNYNIMLSHYFNMGSIRNMSVSLTGYRYEYDNRADKGMEGHHHHHH | not soluble |
| MSLNQIYQLTKPKFINVKYQEEAIDQENHILIRPNYMAVCHADQRYYQGKRDPKILNKKLPMAMIHESCGTVISDPTGTYEVGQKVVMIPNQSPMQSDEEFYENYMTGTHFLSSGFDGFMREFVSLPKDRVVAYDAIEDTVAAITEFVSVGMHAMNRLLTLAHSKRERIAVIGDGSLAFVVANIINYTLPEAEIVVIGRHWEKLELFSFAKECYITDNIPEDLAFDHAFECCGGDGTGPAINDLIRYIRPQGTILMMGVSEYKVNLNTRDALEKGLILVGSSRSGRIDFENAIQMMEVKKFANRLKNILYLEEPVREIKDIHRVFATDLNTAFKTVFKWEEGHHHHHH | soluble |
| MSNRVPTNILTGFLGVGKTTTILNLLKNKPENENWAVLVNEFGEIGIDGALMTDQGALIKEVPGGCMCCTAGVPMSVGITALLRQKPDRLLIEPTGLGHPKQVIATLTSEQYLPYVDLKATIALVDPRNLSDEKYTSNQNFVDQLDSADVVIGSKVDLCSSHDIDVFNDWVTDQTPAKVFSKLIHNGELPIEVLDIERVHGSASSHIETHHHEHAHQEPQFQLPPGEAFIRKENKGQGYFSCGWLFGAEYKFDFDKLFSMLSDLTAERVKAVVNTNQGCYAFNVANRVVSVNEISLEGFESRLEVIDSQLLPWDELEQILLQLAGVEGLEHHHHHH | soluble |
| RWYQRYLNPDRRHLAIDPYICGTVLTYSSDAPIGDSAPTTSCYMTGMPSNTGFVSTYPVSSGDADLIPVDKARAYSPLATFLEAAKIMKGKKTGLVVTCHFPHATPADCSAHSYSRKKYDWIAAQMVHQNLDVVLGGGTHYLHPELQSVLNSRGYGLFLDDLNGMRTYAGDRMWALFGKREMPYDLDRDTTQIPSLEEMTRLAIEKLNRSEEGFFLMVEGSKVDWAAHANDPVGIATEYLAFDRACAVAFDFARRDGQTAVIIVPDHGNSGVSIGKQSVKDYDKRSAKDLFDQLCRFRLTADGLAGRLADTPADKVQGLVSNICGFELDAKELEALYNCPDYNHSPIPKEQRRQTEESLYSGSLSTFIASLYTKHTSIGFTTHGHTAEEVLLAAYHPQDTRPMGMVINYELNDYLCRLFELGSQLPVLTDKIFAPHTEVFQGMSYSIKDGKKEGELPVLEVKKGSHRLLASPFSNTVIFNKKAIDLSSVVVYVDKTKTFYLPRELRSLFGE | not soluble |
| MGSDKIHHHHHHMVMTVGDSRVGKSTVIKLLLEMYQIQGKRLKVYDHDNRDRFLAYKDLVCIEKIDFFNTRTDRIFNDLIVDSLDIILVDMPGQYLDKICQYIIQSELLGALAEYGWSLTFVQPISHRTDCIDYLSQIVQTATNNANYVVVKNYHFAPEFREYEQTMAKNLLMIGGTEIELTALHRNHYQAMEKAGIPYSQVCQDISMILFLRSYIYQWIKKFHDSVMDNDLAVKYLGLD | not soluble |
| MGSDKIHHHHHHMEDLYLECPGCDEVTLHTVLKEKESKKHLKITVKCQECGTVHDIEKNFKLKDIKIVISRYDESEQSVLQIATDEILKVEDVILAFDESVEITALETEDSRRVSSSAAQDLKMIWARSIDVPKKVGISINSRESTYSFNILVPQDYVFEEKKIYRAGRDFFRIKQIKTEKGNFSRELARKIKRIYGEPVKPLRDYTDLTDYML | not soluble |
| MDQKSSSPQPAAQAPETKQAFPRKFVLAALEQSSDDAGWANLGNFGNYLNKLQPDFDSRLYGYKKLSDLVKARTDLFVTEERQVPGSTQKALYLRAKLEHHHHHH | soluble |
| MYLRPDEVARVLEKAGFTVDVVTNKTYGYRRGENYVYVNREARMGRTALIIHPRLKDRSSSLADPASDIKTCDHYQNFPLYLGGETHEHYGIPHGFSSRIALERYLNGLFGDEKTD | not soluble |
| MRGSHHHHHHTDPALRASSNTFTLGTKSVNRLGYGAMQLAGPGVFGPPRDRHVAITVLREALALGVNHIDTSDFYGPHVTNQIIREALYPYSDDLTIVTKIGARRGEDASWLPAFSPAELQKAVHDNLRNLGLDVLDVVNLRVMMGDGHGPAEGSIEASLTVLAEMQQQGLVKHIGLSNVTPTQVAEARKIAEIVCVQNEYNIAHRADDAMIDALAHDGIAYVPFFPLGGFTPLQSSTLSDVAASLGATPMQVALAWLLQRSPNILLIPGTSSVAHLRENMAAEKLHLSEEVLSTLDGISREGLCGR | soluble |
| SFPGDYDNYLLEKEEMLRVEEMQNAEFDKKLAQEEVWIRQGIKARRTRNEGRVRALKKLREERRDRREVQGKVNLNIDDASRSGKIVF | not soluble |
| MGSDKIHHHHHHMSRGIYIVANDRVIDNAIALLNSIRYYDPEVTIYLIPFNENYHKVAEQLSTLHKVQIFPDLELIDKFTKRIGEIFDRDFLALPNKMRKLVAWFGPLDEFIYIDTDIVVFEKIADNLDKLSEVDFFCCDYHYANDKLRNIFSPFVKEQQLFSDAQLQDVFNSGFWASRKGVITEEQMDEALRECAAHREYFDFSEGVTDQPILNYLVLKLIDKRGNLVKIPGGGPGSWAGSQSFQQQDYALYDRGQRLKYLHWAGTRMKTGSPYWQLWEHYRYLHEGKFAFISKLTRRLFPFVAART | not soluble |
| MEEDIVRLFYKGSEIILIGTSHISAESADLVRKTIQEENPDTICIEWDQKRYKKNIHPDEWDDTDIVKIIKNKQFPVFIFGVIYKLFQKKVSQDMNSLVGKEFVVAVDESKKLNIKFYLIDRDSSLTFKRAWRMLNFREKVKLPYAFGKIFEGAEETEEEVQNLLESENFEPVFEELKESYPNLWEVFVTERDDYLATKIQNTANGKTVAVLGKAHLKGVSDRLKNNQKSDLQKLEIIPPKK | not soluble |
| MLTVHHLNQSRSQRILWALEELALPYQIVRYQREKTMLAPPALKKVHPLGKSPVIEDHGMVIAESGAILEYLQDTYDSIGRFKPADAQGKQHYRFWLHYAEGSLMPLLLMRLLFTSLGKPPVPLGLRTLGGVIGKGAQKAYLNPQLETHARFIDGHLANHPWFAGEQLSMADIQMSFPLFALLARGGIAHLDHINAWKARVEMRPAWQRAIQQGGPFTIPGG | not soluble |
| METKCELNNTKKVANAFGLNEEDTNLLINAVDLDIKNNMQEISSELQQSEQSKQKQLGTTLQNLAKQNRIIK | not soluble |
| MARPLEQAVAAIVCTFQEYAGRCGDKYKLCQAELKELLQKELATWTPTEFRECDYNKFMSVLDTNKDCEVDFVEYVRSLACLCLYCHEYFKDCPSEPPCSQ | soluble |
| MTLDLFAPQPKTNLLPYDGDVEDYGCFISTAEAEQYFQYFLKHLAWRHDEARLYGKHFITPRQVAWYGDDHYRYAYSGIMRDSLPWDPQLLILKQQIEQTLAERFNSCLANLYQEGTQGMAWHSDGDMSLAKQTTIASLSLGATRKFCFRHLRTKEKIEMQLQSGQLIVMRGETQQHWQHAIMKSQKVIHPRINLTFRQFLLLEHHHHHH | not soluble |
